Assay results: patent US20250011456A1, “ANTIBODIES AGAINST CD14 AND USES THEREOF” (Villanelle Life Science Inc, priority 2023, published 2025)
Where “and” joins values, the source holds several entries; their conditions need not be identical. Identical values can stand only once.

Columns and labels:
[1] = molecular target: T1, recombinant human CD14 (B294801, histidine tagged) (Homo sapiens, UniProt P08571); test: Biacore 8K kinetic and affinity test of humanized antibodies (Example 8); format: binding; details: Biacore 8K, analyte B294801 0.78125-25 nM, capture 1 μg/mL
T1 construct: His; purchased Shanghai BaiYing Biotechnology Co., Ltd B294801 (Batch number 20200518A22)
T1 sequence (P08571 20-345): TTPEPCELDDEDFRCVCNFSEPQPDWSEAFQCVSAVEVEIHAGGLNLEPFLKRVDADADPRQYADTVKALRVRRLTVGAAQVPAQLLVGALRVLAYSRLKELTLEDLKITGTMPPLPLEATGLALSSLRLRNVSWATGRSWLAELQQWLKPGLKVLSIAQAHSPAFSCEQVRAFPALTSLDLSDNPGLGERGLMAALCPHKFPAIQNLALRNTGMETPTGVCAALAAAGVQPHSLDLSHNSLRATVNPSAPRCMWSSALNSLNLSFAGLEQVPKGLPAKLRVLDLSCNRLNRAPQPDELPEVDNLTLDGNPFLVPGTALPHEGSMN
Description: Experimental reagents and consumables included Protein A chip (Cytiva, 29127556). Main instruments and equipment included Biacore 8K (Cytiva), shaker (Taicang Huamei), ELISA system (Molecular Devices), centrifuge (Baiyang), ultrapure water system (Millipore), and thermostatic incubator (BLUE PARD).
The antigen used for the binding affinity measurements is B294801. This antigen is a recombinant human CD14 antigen that is histidine tagged and has a molecular weight of 36 kDa. B294801 was purchased from Shanghai BaiYing Biotechnology Co., Ltd (name: Recombinant Human CD14/His Protein; Batch number 20200518A22). D6DD3D001 is a mouse antibody, and D6DD3D002-D6DD3D0016 are humanized antibodies. The antibodies are recombinant, human (hFc Tag). Selected parameters of the experimental samples are shown in Table 8-1, with MW referring to molecular weight in kiloDaltons (kDa).
The Biacore 8K platform was used to test the kinetic and affinity properties of the antibody. The operation was carried out according to the system instructions and indications.
The equilibrium dissociation constant (KD) reflects the affinity of the antibody to the target, with a smaller value indicating a stronger affinity. KD (in units of molarity) is determined by the ratio of the dissociation rate constant (koff) and the association rate constant (kon), that is, KD=Koff/kon.
15 humanized antibodies (numbered D6DD3D002-D6DD3D0016) and 1 mouse antibody (number D6DD3D001) were tested. For the experiments, the analyte solution comprises the B294801 antigen with an analyte concentration of 0.78125 nM, 1.5625 nM, 3.125 nM, 6.25 nM, 12.5 nM, and 25 nM. The capture concentration was 1 μg/mL. In Table 8-3, the change factor is the ratio of the equilibrium dissociation constant KD of the humanized to mouse antibody, and reflects the change in affinity after humanization.

[2] = system: CD14 positive recurrent bladder cancer patient-derived xenograft (PDX); test: Amount of anti-CD14-IgG1 (5-40 mg/kg) for tumor treatment in PDX mice (tumor length, width, volume, tumor weight; Example 7); format: in vivo; details: for Tumor Length / Tumor Volume / Tumor Width: per mouse 1-5; for Tumor weight after 28 days: individual mice 1-5
Source text: After removing the primary tumor tissue from the patient, the tissue was temporarily placed in a complete culture medium containing RPMI1640 (Gibco Roswell Park Memorial Institute 1640 Media)+PS (penicillin and streptomycin)+10% FBS (Fetal bovine serum). The tissue was then transported to a sterile operating room within an SPF-grade (Specific Pathogen Free) animal facility. The tumor tissue was cut to an appropriate size (5 millimeters (mm) in diameter). Severely immunodeficient NSG (NOD scid gamma mouse) mice were anesthetized using an isoflurane respirator. The tumor was transplanted subcutaneously into the right rib area through surgery. When the tumor volume reached 1 cm^3, it was passaged following the same procedure, and after expanding for three generations, the tumor became stable for use in formal experiments. During the experiment, passaging and expansion were performed as needed. When the tumor volume reached 100 mm^3, the mice were divided into groups according to the experimental requirements and treated with drugs.
To evaluate concentrations for the anti-CD14-IgG1 antibody, PDX mice were treated with five different concentrations of the IgG1 antibody over a period of 28 days. For these experiments, drug administration on the PDX mice was performed intravenously on alternating 4 days and 3 days.
The five different concentrations of the anti-CD14-IgG1 antibody tested include 5 mg/kg, 10 mg/kg, 15 mg/kg, 25 mg/kg, and 40 mg/kg. A control regimen was utilized as a comparative example. […] The non-specific IgG1 has no binding affinity to antigen. […] Tumor weight and tumor volume were calculated as described above.

[3] = Day 4, IgG1 (10 mg/kg), 10 mg/kg
[4] = Day 11, IgG1 (5 mg/kg), 5 mg/kg
[5] = Day 14, IgG1 (5 mg/kg), 5 mg/kg
[6] = Day 18, IgG1 (5 mg/kg), 5 mg/kg
[7] = Day 21, IgG1 (5 mg/kg), 5 mg/kg
[8] = Day 25, IgG1 (5 mg/kg), 5 mg/kg
[9] = Day 28, IgG1 (5 mg/kg), 5 mg/kg

B1: D6DD3D001: mouse-derived anti-CD14 IgG1 antibody; VH SEQ ID NO: 1, VL SEQ ID NO: 3, heavy chain SEQ ID NO: 2, light chain SEQ ID NO: 4 (antibody)
heavy: DVQLQQSGPGLVKPSQSLSLTCTVTGYSITSDSAWNWIRQFPGNRLEWMGYISYSGSTSYNPSLKSRISITRDTSKNQFFLQLNSVTTEDTATYYCVRGLRFAYWGQGTLVTVSSPSVFLFPPKPKDTLMISRTPEVTCVVVDVSHEDPEVKFNWYVDGVEVHNAKTKPREEQYNSTYRVVSVLTVLHQDWLNGKEYKCKVSNKALPAPIEKTISKAKGQPREPQVYTLPPSREEMTKNQVSLTCLVKGFYPSDIAVEWESNGQPENNYKTTPPVLDSDGSFFLYSKLTVDKSRWQQGNVFSCSVMHEALHNHYTQKSLSLSPGK
light: DIVLTQSPASLAVSLGQRATISCRASESVDSYVNSFLHWYQQKPGQPPKLLIYRASNLQSGIPARFSGSGSRTDFTLTINPVEADDVATYYCQQSNEDPYTFGGGTKLEIKRTVAAPSVFIFPPSDEQLKSGTASVVCLLNNFYPREAKVQWKVDNALQSGNSQESVTEQDSKDSTYSLSSTLTLSKADYEKHKVYACEVTHQGLSSPVTKSFNRGEC
[1]
  koff (1:1 binding): 0.000858 s⁻¹
  kon (1:1 binding): 1.77e+06 M⁻¹ s⁻¹
[2]; Day 0, IgG1 (5 mg/kg), 5 mg/kg
  Tumor Length: 4.41 mm and 4.54 mm and 4.71 mm and 5.12 mm and 4.93 mm
  Tumor Volume: 20.01 mm^3 and 19.41 mm^3 and 19.14 mm^3 and 19.44 mm^3 and 19.33 mm^3
[2]; Day 0, IgG1 (10 mg/kg), 10 mg/kg
  Tumor Volume: 59.69 mm^3 and 68.55 mm^3 and 77.15 mm^3 and 79.05 mm^3 and 79.08 mm^3
[2]; Day 4, IgG1 (5 mg/kg), 5 mg/kg
  Tumor Length: 5.58 mm and 6.11 mm and 6.53 mm and 5.89 mm and 6.64 mm
  Tumor Volume: 79.57 mm^3 and 87.80 mm^3 and 92.05 mm^3 and 94.26 mm^3 and 105.50 mm^3
  Tumor Width: 5.22 mm and 5.24 mm and 5.19 mm and 5.53 mm and 5.51 mm
[2]; [3]
  Tumor Length: 5.95 mm and 6.55 mm
  Tumor Volume: 81.63 mm^3 and 82.98 mm^3 and 85.32 mm^3 and 88.96 mm^3 and 108.37 mm^3
  Tumor Width: 5.12 mm
[2]; Day 4, IgG1 (15 mg/kg), 15 mg/kg
  Tumor Volume: 76.19 mm^3 and 77.75 mm^3 and 81.95 mm^3 and 87.59 mm^3 and 90.56 mm^3
[2]; Day 7, IgG1 (5 mg/kg), 5 mg/kg
  Tumor Length: 7.84 mm and 6.11 mm and 6.37 mm and 6.61 mm and 6.56 mm
  Tumor Volume: 103.81 mm^3 and 104.99 mm^3 and 109.45 mm^3 and 121.23 mm^3 and 132.82 mm^3
  Tumor Width: 5.03 mm and 5.73 mm (2×) and 5.92 mm and 6.22 mm
[2]; Day 7, IgG1 (10 mg/kg), 10 mg/kg
  Tumor Volume: 112.99 mm^3 and 113.39 mm^3 and 121.55 mm^3 and 122.33 mm^3 and 133.44 mm^3
[2]; Day 7, IgG1 (15 mg/kg), 15 mg/kg
  Tumor Volume: 99.31 mm^3 and 113.51 mm^3 and 118.44 mm^3 and 127.47 mm^3 and 152.88 mm^3
[2]; [4]
  Tumor Length: 6.48 mm and 6.63 mm and 6.74 mm and 6.44 mm and 7.52 mm
  Tumor Volume: 92.40 mm^3 and 103.06 mm^3 and 128.68 mm^3 and 130.81 mm^3 and 158.69 mm^3
  Tumor Width: 5.22 mm and 5.45 mm and 6.04 mm and 6.23 mm and 6.35 mm
[2]; Day 11, IgG1 (10 mg/kg), 10 mg/kg
  Tumor Volume: 100.68 mm^3 and 105.14 mm^3 and 112.60 mm^3 and 143.90 mm^3 and 170.28 mm^3
[2]; [5]
  Tumor Length: 7.14 mm and 6.88 mm and 7.56 mm and 7.02 mm and 8.46 mm
  Tumor Volume: 128.31 mm^3 and 135.30 mm^3 and 170.26 mm^3 and 171.88 mm^3 and 184.76 mm^3
  Tumor Width: 5.86 mm and 6.13 mm and 6.56 mm and 6.84 mm and 6.46 mm
[2]; Day 14, IgG1 (10 mg/kg), 10 mg/kg
  Tumor Volume: 109.71 mm^3 and 110.99 mm^3 and 134.85 mm^3 and 153.36 mm^3 and 165.63 mm^3
[2]; [6]
  Tumor Length: 7.91 mm and 7.24 mm and 8.45 mm and 8.16 mm and 8.08 mm
  Tumor Volume: 151.02 mm^3 and 169.58 mm^3 and 185.12 mm^3 and 218.31 mm^3 and 231.55 mm^3
  Tumor Width: 6.04 mm and 6.69 mm and 6.47 mm and 7.15 mm and 7.4 mm
[2]; Day 18, IgG1 (10 mg/kg), 10 mg/kg
  Tumor Volume: 132.18 mm^3 and 141.82 mm^3 and 163.82 mm^3 and 192.29 mm^3 and 204.50 mm^3
[2]; [7]
  Tumor Length: 8.92 mm and 8.5 mm and 8.53 mm and 8.19 mm and 8.49 mm
  Tumor Volume: 191.80 mm^3 and 234.46 mm^3 and 261.25 mm^3 and 271.57 mm^3 and 289.36 mm^3
  Tumor Width: 6.41 mm and 7.26 mm and 7.65 mm and 7.96 mm and 8.07 mm
[2]; Day 21, IgG1 (10 mg/kg), 10 mg/kg
  Tumor Volume: 218.53 mm^3 and 193.54 mm^3 and 221.69 mm^3 and 223.66 mm^3 and 268.23 mm^3
[2]; [8]
  Tumor Length: 8.73 mm and 9.67 mm and 9.91 mm and 9.97 mm and 9.69 mm
  Tumor Volume: 234.87 mm^3 and 334.49 mm^3 and 386.25 mm^3 and 465.95 mm^3 and 468.33 mm^3
  Tumor Width: 7.17 mm and 8.13 mm and 8.63 mm and 9.45 mm and 9.61 mm
[2]; Day 25, IgG1 (10 mg/kg), 10 mg/kg
  Tumor Volume: 227.79 mm^3 and 282.78 mm^3 and 300.56 mm^3 and 329.18 mm^3 and 336.90 mm^3
[2]; [9]
  Tumor Length: 9.76 mm and 9.79 mm and 10.39 mm and 11.02 mm and 10.87 mm
  Tumor Volume: 333.47 mm^3 and 459.47 mm^3 and 555.77 mm^3 and 603.55 mm^3 and 637.97 mm^3
  Tumor Width: 8.08 mm and 9.47 mm and 10.11 mm and 10.23 mm and 10.59 mm
[2]; Day 28, IgG1 (10 mg/kg), 10 mg/kg
  Tumor Volume: 231.00 mm^3 and 313.49 mm^3 and 338.93 mm^3 and 402.03 mm^3 and 419.55 mm^3
[2]; IgG1 5 mg/kg, 5 mg/kg
  Tumor weight after 28 days: 0.486 grams and 0.535 grams and 0.567 grams and 0.502 grams and 0.625 grams
[2]; IgG1 10 mg/kg, 10 mg/kg
  Tumor weight after 28 days: 0.341 grams and 0.302 grams and 0.267 grams and 0.285 grams and 0.386 grams
[2]; IgG1 15 mg/kg, 15 mg/kg
  Tumor weight after 28 days: 0.215 grams and 0.202 grams and 0.246 grams and 0.253 grams and 0.291 grams
[2]; IgG1 25 mg/kg, 25 mg/kg
  Tumor weight after 28 days: 0.158 grams and 0.184 grams and 0.191 grams and 0.204 grams and 0.211 grams
[2]; IgG1 40 mg/kg, 40 mg/kg
  Tumor weight after 28 days: 0.128 grams and 0.195 grams and 0.199 grams and 0.205 grams and 0.206 grams
[2]; anti-CD14-IgG1 5 mg/kg to 15 mg/kg, 28 days
  tumor inhibition level versus dosage: significantly increase with the dosage
[2]; anti-CD14-IgG1 15 mg/kg to 40 mg/kg, 28 days
  tumor inhibition rate versus dosage: tumor inhibition rate remaining the same across the three groups
